One substance from PMC9817077, “Simple, Reliable Protocol for High-Yield Solubilization of Seedless Amyloid-β Monomer” (ACS Chemical Neuroscience, 2022) can be followed below.

Series [1] is described as follows: AF4-MALS fractionation of re-solubilized samples. The series is classed as physicochemical. Here is the method:
Samples were analyzed using an AF4 frit inlet (FI) channel equilibrated in 1 mM NaOH, with a 250 μm spacer and a 1 kDa PES membrane, and in-line UV (280 nm; Shimadzu, U.K.), MALS, and RI detectors. Except where otherwise stated, the channel, associated pumps, autosampler, and detectors were purchased or loaned from Postnova Analytics (Landsberg am Lech, Germany). The RI detector was purged following equilibration, and the UV and RI detectors were then zeroed. […] The sample was separated in a 1 mM NaOH mobile phase, with 0.2 mL/min TIP and detector flow; the focus and cross-flow rates were also matched to one another and varied throughout the run.
Data processing and estimation of sample concentration, molecular weight, and recovery were carried out in the AF2000 Control software (Postnova Analytics, Landsberg am Lech, Germany), with additional data processing in GraphPad Prism version 8.3.0. […] We note that, although there is an isosbestic point nearby at 276 nm, the relatively rapid decrease in tyrosine absorbance and increase in tyrosinate absorbance to the right of this point mean that deprotonation still has a significant effect on the extinction coefficient at 280 nm. […] As a result, the tyrosine/tyrosinate extinction coefficient is more appropriate for analysis of the monomer and oligomer fractions in our AF4-MALS runs. Molecular weight values were calculated by fitting models to the UV280 and MALS signals. The molecular weights in Figure 2e were obtained using a fourth-degree Berry fit from 2.0 to 7.0 min, a linear Zimm fit from 7.0 to 12.5 min, and a third-degree Berry fit from 28.0 to 50.0 min. The molecular weights in Figure 3c were obtained using a linear Zimm fit. […] This summation tends toward an exact integral as Δt → 0, and the experimental parameter of Δt = 0.12 min was sufficiently small for the approximation to be reasonably accurate. The probability density function p(M), which gives the probability density of species with mass M, can be calculated as p(M) = dP(Mw ≤ M)/dM. However, when presenting the data on a logarithmic axis, peaks in the probability density function are horizontally stretched at low M and horizontally compressed at high M, meaning that the peak area is no longer proportional to the mass of material.

Series [2] is described as follows: Storage stability at −80 °C (ThT half-time against storage time). The series is classed as physicochemical. From the text: To more quantitatively assess this stability, the mean fibrillization half-time τhalf of each ThT experiment was plotted against the storage time of the corresponding aliquot.
Each point corresponds to the average fibrillization half-time of a single ThT experiment; the error bars, which in some cases are too small to show, represent a single standard deviation. The fitted curve is an exponential decay of the form τhalf = τhalf^′e^–kmodt, where τhalf is the self-assembly half-time, τhalf^′ is the half-time prior to the effects of storage, kmod is the proportional rate of change of τhalf during storage, and t is the storage time. See text for values of the fitted parameters and Table S2 for the correspondence between the color scheme and sample ID.

Where [3] appears, read: 50 mM NaOH, 20 μg injected, mean ± SD.
Where [4] appears, read: 50 mM NaOH, geometric average Mw elugram, ROI 3.3–20.0 min.
Where [5] appears, read: 5 min sonication in 50 mM NaOH (pH ≈ 12.5), 20 μg injected, 1 mM NaOH mobile phase, UV280, mean ± SD, n = 12.
Setting [6] is: re-solubilized in 10 mM NaOH without HFIP, 20 μg injected, 1 mM NaOH mobile phase, UV280, mean ± SD.

Consider “Aβ(1-42): Ultrapure recombinant Aβ(1-42) purchased from rPeptide, lyophilized from HFIP; disordered amyloid-forming peptide”, for which, in series [1] (10 mM NaOH preparations with higher pH (≳10.0) after re-solubilization, 20 μg injected, mean ± SD), the “material eluting in peak 2” value was 18.30 ± 1.17 µg. In addition, the “material eluting in peak 2” value in series [1] (10 mM NaOH preparations with more neutral pH (≲8.0) after re-solubilization, 20 μg injected, mean ± SD) turned out to be 7.62 ± 2.20 µg. Further, in series [1] (10 mM NaOH preparations, more neutral samples (≲8.0), 20 μg injected, mean ± SD), the “recovery in peak 1” value was found to be 6.32 ± 6.62 µg. Also, in series [1] (10 mM NaOH, relative to injected mass of 20 μg, ± SD), the “fraction of sample eluting in peak 3” value is on record as approximately 11 ± 5%. Moreover, in series [1] (setting [3]), the “recovery from the first two regions of interest (1.5–30.0 min)” value came out at 19.90 ± 0.99 µg and the “total recovery across all three regions of interest” value amounted to 20.62 ± 1.19 µg. Besides, in series [1] (setting [4]), the “sample eluting in fractions suggestive of dimer or larger” value came out at 12% and the “sample eluting in fractions with Mw closer to the monomer” value came to 88%. The “Mw of eluting material from 4.0 to 5.0 min” value in series [1] (50 mM NaOH, geometric mean of 10 concordant Mw elugrams, linear Zimm fit) was approximately 4500 Da. For the same substance, the “major peak of the molecular weight distribution” value in series [1] (50 mM NaOH, sample eluting 3.3–20.0 min, from average elugram and UV280) is recorded as approximately 4500 Da. In series [1] (setting [5]), the “material eluting in the peak 1 region (1.5–3.3 min)” value is 0.31 ± 0.17 µg; the “material eluting in the peak 2 region (3.3–30.0 min)” value was 19.59 ± 0.90 µg; the “material eluting in the peak 3 region (>30 min), nominal” value is 0.72 ± 0.32 µg. Moreover, in series [1] (setting [6]), the “material eluting in peak 1 (1.5–3.3 min)” value amounted to 3.99 ± 5.92 µg; the “material eluting in peak 2 (3.3–30.0 min), monomer and small oligomer” value was 11.73 ± 5.70 µg; the “material eluting in peak 3 (30.0–60.0 min)” value came out at 2.11 ± 0.95 µg. Moreover, the “total material eluted in the AF4 run” value in series [1] (re-solubilized in 10 mM NaOH, 20 μg injected, mean ± SD) was found to be 17.82 ± 6.68 µg. Besides, the “period of stability at −80 °C” value in series [2] (5 min sonication in 50 mM NaOH, frozen in liquid N2) was “over 39 days”. Moreover, the “rate constant kmod of decay of the self-assembly half-time during storage” value in series [2] (5 min sonication in 50 mM NaOH, stored at −80 °C for 1 to 39 days, exponential fit, not significantly different from 0 (P = 0.3011)) is 6.53 × 10^–4 day^–1. Moreover, the “time constant τmod” value in series [2] (storage at −80 °C, from exponential fit) stood at 1530 days.
